Test results: the Human Domainome abundance scans (Beltran et al. 2025)
± gives the uncertainty stated by the source.

B1: POU domain, class 4, transcription factor 2, residues 256 to 327; numbered along this chain, Q12837 (parent)
chain: RDLEAFAERFKQRRIKLGVTQADVGSALANLKIPGVGSLSQSTICRFESLTLSHNNMIALKPILQAWLEEAE
B2: RAS guanyl-releasing protein 1, residues 539 to 593; numbered along this chain, O95267 (parent)
chain: GFPHNFQETTYLKPTFCDNCAGFLWGVIKQGYRCKDCGMNCHKQCKDLVVFECKK

Variants of: B1
Experiment: abundance fitness (aPCA) (normalised: wild type 0, dead -1); higher = more abundant; growth selection in yeast, the domain comes from the species named
Settings: Homo sapiens

Abundance fitness: each site, then its substitutions
Q12: C -0.865 ± 0.43 | W -0.269 ± 0.094 | V -0.232 ± 0.091 | M -0.194 ± 0.1 | S -0.186 ± 0.065 | H 0.011 ± 0.16 | I -0.063 ± 0.13 | Y -0.463 ± 0.23 | A 0.045 ± 0.056 | P -1.22 ± 0.32 | D -0.148 ± 0.16 | F -0.298 ± 0.21 | E -0.016 ± 0.1
R1: C -0.445 ± 0.14 | S -0.235 ± 0.087 | E 0.368 ± 0.47 | V -0.107 ± 0.088 | W -0.143 ± 0.12 | A 0.078 ± 0.093 | T -0.186 ± 0.14 | P -0.199 ± 0.33 | L -0.354 ± 0.2 | G 0.055 ± 0.078
L3: Y -0.213 ± 0.11 | E -0.573 ± 0.091 | M 0.064 ± 0.089 | N -0.382 ± 0.19 | V -0.153 ± 0.061 | T -0.327 ± 0.096 | P -0.558 ± 0.076 | H -0.368 ± 0.11 | W -0.283 ± 0.081 | G -0.947 ± 0.14 | I 0.072 ± 0.1 | D -0.658 ± 0.29 | R -0.74 ± 0.1 | Q -0.437 ± 0.078
F10: V -0.59 ± 0.16 | L -0.921 ± 0.14 | P -0.994 ± 0.12 | Q -0.825 ± 0.23 | D -0.823 ± 0.21 | R -0.814 ± 0.099 | I -0.632 ± 0.3 | M -0.694 ± 0.34 | S -1 ± 0.16 | G -0.955 ± 0.17 | E -0.755 ± 0.26 | T -0.707 ± 0.12 | C -0.817 ± 0.33
E4: Q -0.134 ± 0.069 | F -0.251 ± 0.18 | S -0.141 ± 0.061 | W -0.234 ± 0.075 | K -0.137 ± 0.089 | M -0.004 ± 0.047 | H -0.119 ± 0.12 | Y 0.13 ± 0.12 | C -0.273 ± 0.12 | V -0.085 ± 0.058 | T -0.002 ± 0.074 | I -0.002 ± 0.1 | G -0.368 ± 0.063 | L -0.165 ± 0.062 | R -0.137 ± 0.054 | A -0.048 ± 0.057 | D -0.282 ± 0.11 | P -0.335 ± 0.057
D2: C -0.511 ± 0.32 | R -0.379 ± 0.06 | P -0.266 ± 0.069 | E -0.102 ± 0.13 | F -0.376 ± 0.2 | H -0.497 ± 0.33 | S -0.124 ± 0.053 | N 0.077 ± 0.14 | Y -0.171 ± 0.37 | M -0.318 ± 0.2 | A -0.241 ± 0.074 | G -0.21 ± 0.054 | L -0.568 ± 0.084 | W -0.185 ± 0.32
E8: R 0.031 ± 0.041 | F -0.306 ± 0.16 | K 0.007 ± 0.11 | H -0.016 ± 0.085 | N 0.049 ± 0.096 | W -0.208 ± 0.074 | Y 0.036 ± 0.073 | P -0.862 ± 0.097 | I 0 ± 0.1 | M -0.137 ± 0.1 | A -0.232 ± 0.071 | Q -0.091 ± 0.079 | L -0.072 ± 0.064 | V -0.121 ± 0.087 | T -0.222 ± 0.079 | C -0.313 ± 0.076 | G -0.119 ± 0.056 | D -0.172 ± 0.079
R13: G -0.067 ± 0.069 | F -0.375 ± 0.13 | L -0.223 ± 0.057 | D -0.462 ± 0.34 | P -1.02 ± 0.14 | H -0.115 ± 0.082 | E -0.03 ± 0.09 | C -0.476 ± 0.18 | Q -0.113 ± 0.087 | N -0.401 ± 0.14 | A 0.066 ± 0.05
R9: P -0.782 ± 0.086 | I -0.347 ± 0.22 | E 0.263 ± 0.1 | L 0.1 ± 0.052 | F -0.335 ± 0.19 | S 0.018 ± 0.047 | T 0.033 ± 0.073 | K 0.007 ± 0.17 | M 0.095 ± 0.13 | C 0.014 ± 0.15 | G -0.061 ± 0.046 | D 0.307 ± 0.12 | Y -0.055 ± 0.15 | W -0.136 ± 0.074 | A -0.07 ± 0.062 | N -0.005 ± 0.19 | H 0.15 ± 0.077 | Q 0.195 ± 0.088
A5: I -0.008 ± 0.35 | R -0.001 ± 0.068 | Q -0.055 ± 0.12 | L 0.017 ± 0.12 | F 0.033 ± 0.1 | N 0.093 ± 0.18 | S -0.167 ± 0.097 | C -0.311 ± 0.24 | V 0.004 ± 0.11 | W -0.491 ± 0.27 | T -0.201 ± 0.2 | E -0.329 ± 0.35 | P -0.277 ± 0.14
A7: C -0.358 ± 0.13 | V 0.08 ± 0.063 | W -0.709 ± 0.28 | L -0.936 ± 0.19 | G -0.639 ± 0.065 | E -0.443 ± 0.23 | Y -0.537 ± 0.13 | M -0.774 ± 0.3 | Q -1.01 ± 0.28 | S -0.455 ± 0.066 | N -0.907 ± 0.41 | H -0.772 ± 0.23 | D -0.769 ± 0.35 | P -0.768 ± 0.063
K11: Y -0.781 ± 0.32 | E -0.914 ± 0.34 | R -0.106 ± 0.056 | H -0.901 ± 0.25 | F -0.761 ± 0.19 | S -0.443 ± 0.08 | W -0.701 ± 0.2 | P -0.994 ± 0.12 | L -0.661 ± 0.094 | A -0.337 ± 0.064 | T -0.194 ± 0.1 | G -0.678 ± 0.093 | Q -0.34 ± 0.13 | M -0.706 ± 0.13

Variants of: B2
Experiment: as above
Settings: Homo sapiens

Abundance fitness: each site, then its substitutions
E52: Q -0.166 ± 0.15 | V -0.148 ± 0.055 | I -0.063 ± 0.11 | L -0.168 ± 0.087 | S -0.203 ± 0.09 | C -0.115 ± 0.081 | P -0.066 ± 0.071 | K -0.057 ± 0.092 | G -0.031 ± 0.045 | T -0.037 ± 0.086 | H -0.053 ± 0.13 | D 0.104 ± 0.092 | F 0.184 ± 0.12 | A -0.068 ± 0.11 | M -0.121 ± 0.053 | N -0.174 ± 0.18 | W -0.267 ± 0.11
K55: L -0.718 ± 0.32 | R -0.435 ± 0.37 | H -0.597 ± 0.26 | D -0.528 ± 0.24 | G -0.084 ± 0.14 | T -0.271 ± 0.16 | S 0.077 ± 0.13 | E -0.242 ± 0.31 | N -0.138 ± 0.18
V49: I -0.319 ± 0.16 | T -0.055 ± 0.1 | R 0.094 ± 0.1 | H 0.229 ± 0.1 | Q -0.071 ± 0.15 | A 0.041 ± 0.086 | W 0.038 ± 0.14 | N 0.035 ± 0.15 | E -0.001 ± 0.12 | L -0.276 ± 0.095 | G -0.122 ± 0.084 | M -0.446 ± 0.2 | F 0.002 ± 0.065 | C -0.229 ± 0.09 | P -0.174 ± 0.12
C53: D -0.061 ± 0.14 | I -0.297 ± 0.2 | V -0.103 ± 0.062 | L 0.021 ± 0.085 | T -0.245 ± 0.1 | H -0.009 ± 0.2 | F -0.32 ± 0.16 | K -0.257 ± 0.19 | Y -0.198 ± 0.16 | W -0.082 ± 0.074 | R -0.255 ± 0.067 | N 0.13 ± 0.13 | Q 0.043 ± 0.077 | E -0.209 ± 0.11 | M -0.095 ± 0.051
L48: T -0.047 ± 0.078 | V -0.049 ± 0.081 | I -0.378 ± 0.12 | N -0.295 ± 0.15 | A 0.023 ± 0.048 | K 0.011 ± 0.052 | P -0.15 ± 0.17 | Q 0.031 ± 0.09 | Y 0.007 ± 0.049 | S 0.058 ± 0.089 | G 0.074 ± 0.061 | F 0.018 ± 0.11 | M 0.055 ± 0.1 | E -0.061 ± 0.07 | C 0.069 ± 0.12 | H -0.209 ± 0.21 | W -0.052 ± 0.053 | R -0.136 ± 0.079
K54: G -0.303 ± 0.1 | W -0.378 ± 0.13 | V -0.248 ± 0.076 | H -0.567 ± 0.27 | C -0.157 ± 0.046 | N -0.113 ± 0.089 | A -0.233 ± 0.1 | E -0.103 ± 0.1 | R -0.028 ± 0.076 | D -0.186 ± 0.15 | Q -0.113 ± 0.16 | P -0.586 ± 0.31 | M 0.018 ± 0.098 | L -0.269 ± 0.087 | I -0.266 ± 0.12 | F -0.228 ± 0.092
K46: R -0.01 ± 0.066 | W -0.032 ± 0.053 | C 0.129 ± 0.092 | H 0.096 ± 0.14 | A -0.09 ± 0.12 | E -0.013 ± 0.087 | N -0.337 ± 0.17 | T -0.069 ± 0.079 | P -0.147 ± 0.084 | L -0.007 ± 0.077 | S -0.078 ± 0.069 | G -0.018 ± 0.076 | D -0.541 ± 0.35 | M 0.208 ± 0.088 | F -0.228 ± 0.14 | V -0.251 ± 0.11 | Y -0.052 ± 0.092
C45: W -0.772 ± 0.19 | Y -0.575 ± 0.061 | V -0.621 ± 0.068 | S -0.486 ± 0.094
F51: M -0.029 ± 0.054 | R -0.008 ± 0.047 | Q 0.002 ± 0.091 | N 0.256 ± 0.11 | A -0.074 ± 0.083 | K -0.155 ± 0.085 | G 0.033 ± 0.06 | L -0.053 ± 0.067 | Y 0.05 ± 0.086 | V -0.046 ± 0.077 | W -0.09 ± 0.094 | E -0.044 ± 0.098 | S 0.011 ± 0.082 | H -0.426 ± 0.31 | P -0.07 ± 0.064 | T -0.435 ± 0.14 | D -0.043 ± 0.15 | C -0.061 ± 0.12
D47: R -0.177 ± 0.08 | L -0.141 ± 0.063 | P -0.054 ± 0.11 | V -0.113 ± 0.083 | A -0.056 ± 0.09 | F -0.143 ± 0.41 | W -0.142 ± 0.082 | M -0.204 ± 0.11 | S 0.068 ± 0.082 | Q 0.083 ± 0.12 | K -0.148 ± 0.096 | N -0.306 ± 0.14 | I -0.211 ± 0.1 | T 0.047 ± 0.09 | G -0.05 ± 0.058 | H -0.32 ± 0.17 | C 0.212 ± 0.097 | Y -0.105 ± 0.14
V50: G -0.076 ± 0.071 | S -0.03 ± 0.057 | A -0.064 ± 0.1 | K -0.383 ± 0.15 | W -0.121 ± 0.071 | Y -0.231 ± 0.12 | R -0.11 ± 0.068 | Q 0.06 ± 0.1 | H -0.214 ± 0.15 | I -0.541 ± 0.23 | D -0.208 ± 0.13 | P -0.157 ± 0.12 | N -0.228 ± 0.11 | M 0.043 ± 0.11 | C 0.042 ± 0.06 | L 0.07 ± 0.079 | E 0.037 ± 0.061
